Assay results reported in the supplement of paper PMC10126150.
± gives the standard deviation of the averaged measurements.
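Note: ATP exposure 15 min at 22 °C before imaging.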

These sequences were tested on ATP (assay: switch fluorescence ratio, 500 uM ATP over buffer (Cy3 cluster intensity, sum of 5 cycles each) (fold (ratio)); higher = stronger signal-on switching upon ATP binding; sequences stand for … in TCGTCGGCAGCGTCAGATGTGTATAAGAGACAGTTTTTTTTTTTTTTTTTTTTTTTTT…TC). Details: aptamer strand: ATP DNA aptamer (quencher-CACCTGGGGGAGTATTGCGGAGGAAGG + anchor), 100 nM annealed; ATP concentration: 500 uM.
Procedure, shortened: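 For every switch-domain sequence, the fluorescence ratio is the mean of per-cluster values, each being summed target-cycle Cy3 intensity over summed buffer-cycle Cy3 intensity. Clusters outside 100-1000 RFU were excluded. On a modified Illumina MiSeq flow-cell, the Cy3-labelled switching-strand clusters were annealed to 100 nM quencher-labelled ATP aptamer, imaged in selection buffer and then after 15 min with 500 uM ATP at 22 °C. Five such cycles were run, with NaOH stripping and re-annealing between them.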
AAATTTACCT gave a switch fluorescence ratio of 1.42 ± 0.072. With TGCTGCCGGT the switch fluorescence ratio was 1.02 ± 0.096. With TATTAGGGGA the switch fluorescence ratio was 1.02 ± 0.013. Sequence ATATTAGGGG has a switch fluorescence ratio of 1.01 ± 0.032. For AATTAACGCG, the switch fluorescence ratio was 0.993 ± 0.023. With GATAGTGTTG the switch fluorescence ratio was 0.992 ± 0.041. With TTTTTTGTTT the switch fluorescence ratio was 1 ± 0.029. In the case of TGGGAGTTTC, the switch fluorescence ratio is reported as 0.978 ± 0.01. In the case of TAAGGTACTG, the switch fluorescence ratio is reported as 0.984 ± 0.086. TTTGGGAA showed a switch fluorescence ratio of 1.03 ± 0.015. TTTCTTTGTT was tested, and the switch fluorescence ratio was 1.04 ± 0.096. ACAGGTATTA was tested, and the switch fluorescence ratio was 0.996 ± 0.017. With CATGTCACGG the switch fluorescence ratio was 1.06 ± 0.039. Sequence ATTTTGTCCA has a switch fluorescence ratio of 1.02 ± 0.021. Work on TTTTTAAAAT yielded a switch fluorescence ratio of 1.08 ± 0.22. With ACTGTGGAAT the switch fluorescence ratio was 1.07 ± 0.022. With TTTCTTCCAT the switch fluorescence ratio was 1.05 ± 0.1. For CTTTGAATGT, the switch fluorescence ratio was 0.983 ± 0.03. GTGAGGGGCG showed a switch fluorescence ratio of 0.964 ± 0.035. TTTAGGTAGT was tested, and the switch fluorescence ratio was 0.975 ± 0.021. Work on TGGGGCACAT yielded a switch fluorescence ratio of 1.02 ± 0.022. For TTCGTGTGCC, the switch fluorescence ratio was 0.94 ± 0.011. For TTTAGGTTAA, the switch fluorescence ratio was 0.9752 ± 0.0074. In the case of TGTTATTGAT, the switch fluorescence ratio is reported as 1.02 ± 0.029. TTGGTTTAGG showed a switch fluorescence ratio of 0.983 ± 0.022. TAACGGACGT gave a switch fluorescence ratio of 1.01 ± 0.054. TGACCGGAGT showed a switch fluorescence ratio of 1.03 ± 0.033. In the case of ATTTAAATTA, the switch fluorescence ratio is reported as 1.01 ± 0.017. Work on ACCATACTGC yielded a switch fluorescence ratio of 1.23 ± 0.12. For TCCCATTTGG, the switch fluorescence ratio was 1.03 ± 0.072. GATGGGGTTT gave a switch fluorescence ratio of 1 ± 0.014. Sequence GGGGTAGATA has a switch fluorescence ratio of 1.01 ± 0.012. With AGGATGAAAG the switch fluorescence ratio was 0.9896 ± 0.0034. For TTGGGGAAAA, the switch fluorescence ratio was 1.04 ± 0.054. CGTAAAAGAC showed a switch fluorescence ratio of 1.23 ± 0.19. For AAGTTTGGGC, the switch fluorescence ratio was 0.98 ± 0.036. TGGTTGAGTA showed a switch fluorescence ratio of 0.981 ± 0.017. Work on ATATCGTCGG yielded a switch fluorescence ratio of 0.988 ± 0.028. For GGTGTTGGTA, the switch fluorescence ratio was 0.974 ± 0.029. AGATATTAGA gave a switch fluorescence ratio of 1.017 ± 0.0048. With TCCTAAGGGC the switch fluorescence ratio was 1.04 ± 0.038. GAAAGTTCGC gave a switch fluorescence ratio of 1.02 ± 0.038. Sequence GTTTCCTATT has a switch fluorescence ratio of 0.959 ± 0.013. Sequence TGGGGCTAGG has a switch fluorescence ratio of 0.993 ± 0.018. With TGGTTACCTA the switch fluorescence ratio was 0.987 ± 0.039. ATTCACCCGC gave a switch fluorescence ratio of 1.48 ± 0.13. In the case of TTTTTGTTGA, the switch fluorescence ratio is reported as 0.991 ± 0.026. Sequence TCCGTTGATA has a switch fluorescence ratio of 1.165 ± 0.01. In the case of CGCTTAACGT, the switch fluorescence ratio is reported as 1.05 ± 0.096. TTCAGCAAT was tested, and the switch fluorescence ratio was 5.31 ± 0.8. Work on GGGGATACGG yielded a switch fluorescence ratio of 1.026 ± 0.0047. For GCCGGGTACG, the switch fluorescence ratio was 0.992 ± 0.029. Sequence GGGGGCGCAA has a switch fluorescence ratio of 1.129 ± 0.011. GTGTGTGGTC was tested, and the switch fluorescence ratio was 1 ± 0.021. For TTTATTCGGC, the switch fluorescence ratio was 1.02 ± 0.065. For TATTTGGTCG, the switch fluorescence ratio was 1.02 ± 0.047. GGTTTTGATT was tested, and the switch fluorescence ratio was 0.998 ± 0.0089. TGTTAGTTAC showed a switch fluorescence ratio of 1.03 ± 0.025. GCTTATAGGC showed a switch fluorescence ratio of 0.97 ± 0.032. In the case of TTTTCCGCCC, the switch fluorescence ratio is reported as 3.08 ± 2.9. TAGGATACGG showed a switch fluorescence ratio of 0.995 ± 0.012. Sequence GGCTATGGGT has a switch fluorescence ratio of 1.02 ± 0.024. For TGGGGGTAGG, the switch fluorescence ratio was 1.01 ± 0.027. For ATCAGAGCCG, the switch fluorescence ratio was 0.98 ± 0.083. AACGTTCATG gave a switch fluorescence ratio of 1.02 ± 0.044. In the case of TGACGATAGG, the switch fluorescence ratio is reported as 0.995 ± 0.013. GGGGAGGATT gave a switch fluorescence ratio of 0.986 ± 0.027. Sequence ACGTTCGTTG has a switch fluorescence ratio of 0.9908 ± 0.0096. With GTTTGGGGTA the switch fluorescence ratio was 0.986 ± 0.013. In the case of TTGGGGGGCT, the switch fluorescence ratio is reported as 1.01 ± 0.09. Sequence ACGTGTAGGG has a switch fluorescence ratio of 1 ± 0.025. Work on TCGGTGGGGC yielded a switch fluorescence ratio of 1.01 ± 0.019. Sequence CAGGATTAAA has a switch fluorescence ratio of 0.959 ± 0.029. With GGAAATTTGT the switch fluorescence ratio was 1.008 ± 0.0044. TTCGTGGGCT showed a switch fluorescence ratio of 1.02 ± 0.045. With ATGGCGAGGG the switch fluorescence ratio was 0.989 ± 0.017. With GGGTTTGCAC the switch fluorescence ratio was 1.03 ± 0.026. GGGGTTCCTT was tested, and the switch fluorescence ratio was 1 ± 0.034. Sequence CGACTTGAAA has a switch fluorescence ratio of 1.04 ± 0.041. For ATGTGGTAAT, the switch fluorescence ratio was 0.984 ± 0.024. GAATATACGC showed a switch fluorescence ratio of 1.04 ± 0.021. For ATTGAATGGT, the switch fluorescence ratio was 1.006 ± 0.0027. In the case of TTTGGTTTTA, the switch fluorescence ratio is reported as 1.004 ± 0.0077. Sequence GGAAAAAGGG has a switch fluorescence ratio of 1 ± 0.02. Sequence CTGGTAACCG has a switch fluorescence ratio of 1 ± 0.06.
